From patent US20220332804A1 (CSL INNOVATION, published 2022)
Positions count from the first letter of the chain named.

Tests used:
Assay in all cases: SPR, mAb captured, C2 mutant analyte;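 further: Anti-C2 mAbs captured on goat anti-human IgG Biacore CM5 chips, alanine or serine C2 surface mutants flowed over at 37 °C, double-referenced sensorgrams fitted to a 1:1 binding model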
human C2 I320A = molecular target: T1, human C2 I320A (human, UniProt P06681 21-752)
T1 sequence: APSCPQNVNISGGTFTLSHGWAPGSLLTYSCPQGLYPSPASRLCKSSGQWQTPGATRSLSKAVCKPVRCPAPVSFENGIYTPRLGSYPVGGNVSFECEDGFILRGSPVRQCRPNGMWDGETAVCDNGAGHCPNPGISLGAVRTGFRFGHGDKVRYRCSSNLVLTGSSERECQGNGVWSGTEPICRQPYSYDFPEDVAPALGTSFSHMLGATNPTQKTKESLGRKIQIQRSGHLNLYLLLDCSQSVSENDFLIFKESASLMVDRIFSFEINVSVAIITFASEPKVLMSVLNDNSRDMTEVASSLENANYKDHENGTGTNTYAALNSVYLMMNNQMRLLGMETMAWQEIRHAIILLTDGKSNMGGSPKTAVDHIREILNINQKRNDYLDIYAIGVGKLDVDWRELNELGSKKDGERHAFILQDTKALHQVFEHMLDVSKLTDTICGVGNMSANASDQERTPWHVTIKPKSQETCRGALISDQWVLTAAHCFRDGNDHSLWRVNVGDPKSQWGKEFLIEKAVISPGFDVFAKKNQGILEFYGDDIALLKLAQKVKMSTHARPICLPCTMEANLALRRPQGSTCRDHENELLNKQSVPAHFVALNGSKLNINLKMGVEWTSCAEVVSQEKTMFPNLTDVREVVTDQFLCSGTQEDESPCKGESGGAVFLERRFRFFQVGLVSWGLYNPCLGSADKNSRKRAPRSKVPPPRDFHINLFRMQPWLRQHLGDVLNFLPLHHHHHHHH

human C2 L453A = molecular target: T2, human C2 L453A (human, UniProt P06681 21-752)
T2 sequence: T1 sequence with A300I, L433A

human C2 E450A = molecular target: T3, human C2 E450A (human, UniProt P06681 21-752)
T3 sequence: T1 sequence with A300I, E430A

human C2 D404A = molecular target: T4, human C2 D404A (human, UniProt P06681 21-752)
T4 sequence: T1 sequence with A300I, D384A

- binding result (human C2 I320A): no binding
- Kd (human C2 L453A): 1410 nM
- Kd (human C2 E450A): 627 nM
- Kd (human C2 D404A): 77.6 nM
B1: RF16-214 (antibody, V domains shown)
VH: EVQLLESGGGLVQPGGSLRLSCAASGFTFSWYQMMWVRQAPGKGLEWVSRIYPSGGGTAYADSVKGRFTISRDNSKNTLYLQMNSLRAEDTAVYYCARDAGYGDNWGQGTLVTVSS
VL: QSALTQPPSVSVSPGQTASITCSGDKLGEKYASWYQQKAGQSPVMVIYQDRKRPSGIPERFSGSNSGNTATLTISGTQAMDEADYYCQAWDTRAVVFGGGTKLTVLG
